Reference: the RNAGym collection of RNA variant scans (doi:10.7554/elife.90254)

B1: OR4K15 (parent)
chain: GUUAACGGUCAUAGGCCAUGGAAACUAGGAGCACCAUUUCGCUGCCAGUGAAGAAAUGAACAAAGAAAAUCUGGGCCAGGCAGGCAUCAAAAGAAAUAGUCUUGCGCUCAACCAGAAAGUCUGUAAUCAUUUUAAGGGUA

Variants of: B1
Test: self-cleavage, relative activity (ratio to wild type); higher = more cleavage; in vitro, sequencing; the parent is a self-cleaving ribozyme

Going from GUUAACGGUCAUAGGCCAUGGAAACUAGGAGCGCCAUUUCGCUGCCAGUGAAGAAAUGAACAAAGAAAAUCUGGGCCAGGCAGGCAUCAAAAGAAAUAGUCUUGCGCUCAACCAGAAAGUCUGUAAUCAUUUUAUGGGUA [A33G A135U] to GUUAACGGUCAUAAGCCAUGGAAACUAGGAGCACCAUUUCGCUGCCAGUGAAGAAAUGAACAAAGAAAAUCUGGGCCAGGCAGGCAUCAAAAGAGAUAGUCUUGCGCUCAACCAGAAAGUCUGUAAUCAUUUUAAGGGUA [G14A A95G], the self-cleavage rises from 0.95 to 1.24.

Going from GUUAACGGUCAAAGGCCAUGGAAACUAGGAGCACCAUUUCGCUGCCAGUGAAGAAAUGAACAAAGAAAAUCUGGGCCAGGCAGGCAUCAAAAGAAAUAGUCUUGCGCUCAGCCAGAAAGUCUGUAAUCAUUUUAAGGGUA [U12A A111G] to GUUAACGGUCAUAGGCCAUGAAAACUAGGAGCACCAUUUCGCUGCCAGUGAAGAAAUGAACAAAGAAAAUCUGGGCCAGGCAGGCAUCAAAAGAAAUAGUCUUGCGCUCAACCAGAAAGUCUGUAACCAUUUUAAGGGUA [G21A U127C], the self-cleavage rises from 0.08 to 1.32.

Going from GUUGACGGUCAUAGGCCAUGGAAACUAGGAGCACCAUUUCGCUGCCAGUGAAGAAAUGAACAAAGAAAAUCUGGGCCAGGCAGGCAUCAAAAGAAAUAGUCUCGCGCUCAACCAGAAAGUCUGUAAUCAUUUUAAGGGUA [A4G U103C] to GUUAACGGUCAUAGGCCAUGGAAACUAGGGGCACCAUUUCGCUGCCAGUGGAGAAAUGAACAAAGAAAAUCUGGGCCAGGCAGGCAUCAAAAGAAAUAGUCUUGCGCUCAACCAGAAAGUCUGUAAUCAUUUUAAGGGUA [A30G A51G], the self-cleavage falls from 1.19 to 1.07.

Going from GUUAACGGUCAUAGGCCAUGGAAACUAGGAGCACCAUUUCGCUGCCAGUGAAGAAAUGAACAAAGAAAAUCUGGGCCAGGCAGGCAUCAAAUGAAAUAGUCUUGCGCUCAACCAGAAUGUCUGUAAUCAUUUUAAGGGUA [A92U A118U] to GUUAACUGUCAUAGGCCAUGGAAACUAGGAGCACCAUUUCGCUGCCAGUGAAGAAAUGAACAAAGAAAAACUGGGCCAGGCAGGCAUCAAAAGAAAUAGUCUUGCGCUCAACCAGAAAGUCUGUAAUCAUUUUAAGGGUA [G7U U70A], the self-cleavage rises from 0.74 to 1.27.

First: GUUAACGGUCAUAGGCCAUGGAAACUAGGAGCACCAUUUCGCUGCCAGUGAAGAAAUGAACAAAGAAAAUCUGGGCCAGGCAGGCAUCAAAAGAAAUAGUCUUGCGCUCUACCAGAAAGUCUGUAAUCAUUUUAAGGGCA [A110U U139C]
Second: GUUAAUGGUCAUAGGCCAUGGAAACUAGGAGCACCAUUUCGCUGCCAGUGAAGAAAUGAACAAAGAAAAUCUGGGCCAGGCAGGCAUCAAAAGAAAUAGUCUUGCGCUCAACCAGAAAGCCUGUAAUCAUUUUAAGGGUA [C6U U120C]
The self-cleavage of the first is higher: 0.59 for the first, 0.33 for the second.

First: GUUAACGGUCAUGGGCCAUGGAAACUAGGAGCACCAUUUCGCUGCCAGUGGAGAAAUGAACAAAGAAAAUCUGGGCCAGGCAGGCAUCAAAAGAAAUAGUCUUGCGCUCAACCAGAAAGUCUGUAAUCAUUUUAAGGGUA [A13G A51G]
Second: GUUAACGGUCAUAGGCCAUGGAAACUAGGAGCACCAUUUCGCUGCCCGUGAAGAAAUGAACAAAGAAAAUCUGUGCCAGGCAGGCAUCAAAAGAAAUAGUCUUGCGCUCAACCAGAAAGUCUGUAAUCAUUUUAAGGGUA [A47C G74U]
The self-cleavage of the first is higher: 0.85 for the first, 0.15 for the second.

Compared with GUUAACGGUCAUAGGCCAUGGAAACUAGGAGCACCAUUUCGCUGCCAGUGAAGAAAUGAACAGAGAAAAUCUGGGCCAGGCAGGCAUCAAGAGAAAUAGUCUUGCGCUCAACCAGAAAGUCUGUAAUCAUUUUAAGGGUA [A63G A91G], GUUAACGGUCAUAGGCCAUGGAAACUAGGAGCACCAUUUCGCUGCCAGUGAAGAAAUGAACAAAGAAAAUCUGGGCCAGGCAGGCAUCAAAAGAAAUAGUCUUGCGCUCAACCAGAAAGUCUGCAAUCAUUCUAAGGGUA [U124C U132C] is higher in self-cleavage: 0.98 for the first, 1.13 for the second.

Compared with GUUAACGGUCCUAGGCCAUGGAAACUAGGAGCACCACUUCGCUGCCAGUGAAGAAAUGAACAAAGAAAAUCUGGGCCAGGCAGGCAUCAAAAGAAAUAGUCUUGCGCUCAACCAGAAAGUCUGUAAUCAUUUUAAGGGUA [A11C U37C], GUUAACGGUCAUAGGCCAUGGAAACUAGGAGCACCAUUUCGCUGCCAGUGAAGAAAUGAACAAAGAGAAUCUGGGCCAGGCAGUCAUCAAAAGAAAUAGUCUUGCGCUCAACCAGAAAGUCUGUAAUCAUUUUAAGGGUA [A67G G84U] is lower in self-cleavage: 0.79 for the first, 0.35 for the second.

Compared with GUUAACGGUUAUAGGCCAUGGAAACUAGGAGCACCAUUUCGCUGCCAGUGAAGAAAUGAACAAGGAAAAUCUGGGCCAGGCAGGCAUCAAAAGAAAUAGUCUUGCGCUCAACCAGAAAGUCUGUAAUCAUUUUAAGGGUA [C10U A64G], GUUAACGGUCAUAGGCCAUGGAAACUAGGAGCACUAUUUCGCUGCCAGUGAAGAAAUGAACAAAGAAAAUCUGGGCCAGGCAGGCAUCAAAAGAAAUAGUCUCGCGCUCAACCAGAAAGUCUGUAAUCAUUUUAAGGGUA [C35U U103C] is lower in self-cleavage: 1.25 for the first, 0.29 for the second.

Going from GUUAACGGUCAUAGGCCAUGGAAACUAGGAGCACCAUUUCGAUGCCAGUGAAGAAAUGAACAAAGAAAAUCUGGGCCAGGCAGGCAUCAAAAGAAAUAGUCUUGCGCUCAACCAGAAAGUCUGUAAUCAUUUUAAGGGUA [C42A] to GUUAACGGUCAUAGGCCAUGGAAACUAGGAGCACCAUUUCGCUGCCAGUGAUGAAAUGAACAAAGAAAAUCUGGGCCAGGCUGGCAUCAAAAGAAAUAGUCUUGCGCUCAACCAGAAAGUCUGUAAUCAUUUUAAGGGUA [A52U A82U], the self-cleavage falls from 0.45 to 0.2.

In the case of GUUAACGAUCAUAGGCCAUGGAAACUAGGAGCACCAUUUCGCUGCCAGUGAAGAAAUGAACAAAGAAAAUCUGGGCCAGGCAGGCAUCAAAAGAAAUAGUCUGGCGCUCAACCAGAAAGUCUGUAAUCAUUUUAAGGGUA [G8A U103G], the self-cleavage is reported as 0.03.
